Assay [1] addresses phenylalanyl-glycyl-phenylalanyl-glycine.
Assay [2] concerns the target phenylalanyl-glycyl-phenylalanyl-hydroxylglycine.

In assay [1], “enzyme expressed by plasmid SV-a (rat; signal sequence + N-terminal domain) (from UniProt P14925)” displayed an Enzyme activity n mole/h/ml medium; substrate PheGlyPheGly, product PheGlyPhe-hydroxyGly of 2.8 nmol/h/mL. Also, the Enzyme activity n mole/h/ml medium; substrate PheGlyPhehydroxyGly, product PheGlyPhe-NH2 + glyoxylic acid in assay [2] was less than 2 nmol/h/mL.

As for “enzyme expressed by plasmid SV-b (rat; signal sequence + C-terminal domain) (from UniProt P14925)”, in assay [1], the Enzyme activity n mole/h/ml medium; substrate PheGlyPheGly, product PheGlyPhe-hydroxyGly was 0.4 nmol/h/mL. In addition, the Enzyme activity n mole/h/ml medium; substrate PheGlyPhehydroxyGly, product PheGlyPhe-NH2 + glyoxylic acid in assay [2] turned out to be 10.8 nmol/h/mL.

In turn, “enzymes expressed by plasmid SV-203 (rat; signal sequence + N-terminal domain + C-terminal domain) (from UniProt P14925)” yielded an Enzyme activity n mole/h/ml medium; substrate PheGlyPheGly, product PheGlyPhe-hydroxyGly in assay [1] of 2.5 nmol/h/mL. In addition, the Enzyme activity n mole/h/ml medium; substrate PheGlyPhehydroxyGly, product PheGlyPhe-NH2 + glyoxylic acid in assay [2] amounted to 4.2 nmol/h/mL.

These data come from patent publication US6156555.
